Source: the DeepSol protein solubility set

Assay: soluble on expression in E. coli; label from the status in PepcDB or PDB records

Sequence	soluble on expression in E. coli
MAHHHHHHMPGIKIEEVISTTKRQRVAAHSHVKGLGLDADGSAKPSADGFVGQVKAREAAGIVVELTRSKKMAGRALLFAGPPGTGKTALALGIAKELGPKVPFCPMVGSEVYSAEVKKTEVLMENFRRAIGLRIKEQKEVYEGEVTELRAEETDNPLGGYGKSIAHVIVTLKSVKGSKQLKLDAAIYESLEKEKVSVGDVIYIEASTGAVKRVGRSDAYIGDHDLEADEYVPLPKGDVHKKKEIIQDVTLHDLDSANAKPNQGQDALSIVNSLMKQKKTEITEKLRHEINKVVNKYIDQGVAELVPGVLFIDEVHMLDIECFTFLNKALESTLAPVVIFATNRGSCRIRGTDIRSPHGIPTDLLDRLLIVRTTNYSIEEIVSIVDIRSQVEGVKVSDASLELLGQIGERTSLRYVVQLLTPALIIAETNGRTVIEAEDVMLVDGLFKDAKASAQLLHEHADEYVYQ	not soluble
MEEGIKMGTKLTSLFKEGEKYQINTKYKELPIKTNLKLLWIDENMKLLGFSIGACVFKGAFTPGTEVYIKINGKYAYGKVFSCSNELVIEFKEIRKEPEFIRRRTVRVEPDPANPVVVELKVDSYSIKTKAKDISETGVGVILEKDKPESAEVIDIIQKNPNSWFDLYVHLPKHGTAHAKGRVRNLSIEEEGIYIRIGFEAEYSKEDREKVRRYVFERQQEIIKSLKML	not soluble
MTRTETLELLVATLQQTNASQSESIRQLTRQNEQLQNKLDELLAQVAWLNRQLFGRKSEKLSRLDPNQLSLFEQPVQSLEPEPLEETVVEQTTTPMVTKKKERQNRKLLEGLPVVEVVIEPQDLDLTKYKRIGEEHTRTLEFEPGKLYVKEIIRPKYGLKDNTALPQEYQDGIVIADLPLLPIYKGLPGASLLAEILLQKYEYHVPFYRQIREFHHLGLKIPENTLHGWFKPACELLKPLYDELKKQVLAVDYIQVDETTLPIINKQSHKAVREYLWMVRAVTSGLVFFHYDDGSRSQETARNLLEPFKGYLQSDGYAAYNVFEGKERVCLVGCLVHIRRHYETAKEENKSQAKYVLAKIQELYRIEQAADIQGISPEMRMSKRQKQALPILDELEQWMETTYPKVLPKSQMGQAIAYAYTLWPRMRNYLKDGKLKIDNNLAENAIRPIALSRKNFLFCGNHEAAENTDVICSLLASCKASQVNPREWLTEIIAWLPYYTRDKGKDLKELLPNYWKLRRSKEI	not soluble
MSLRRALIIDDEEAVLKIITHFIEMKDMPIKIVGKATSGDEAVDKIIGLEPDIVFIDIQMPIYNGLEVIEKTSHLSKKINFVVITAFNYFEYAQKALRLNVKDILLKPLDMKEFTKSVEKIIGYQYTNNDLLNEILEYINLNYSNDLKLNDCARLFLTNPSNISRIFKSNLNTTFISYLNHIRIEKSIELLENTTKSINEIAEIVGYNSLNNFYKNFKIEKGMTPKVYKLNTEGHHHHHH	not soluble
MGSDKIHHHHHHMRLTTKGRFAVTAMIDLALREHSGPVALAAISSRQQISLSYLEQLFGKLRRHELVESTRGPGGGYSLGRKAEEITVADIIVAVDEPIDATGCGGKENCMGEDSGRCMTHDLWASLNTKMIEFLDSISLRKLVDDQLAKGVSIEEAPVKRAISSQPVVKPIKITAPNSVFALGSSFSK	not soluble
MELKKFELKTVELPILKPGTLRGKKEFRLLHISDLHMIPGQETKKAWVSALDSLSPDLVINTGDNLSDEKAVPDVLRALGPLMNRPGAFVFGTNDYWAPRPVNPFGYLFGKKREVSHIDLPWRAMRAAFIEHGWQDANQKRLEFQVGSVRLAISGVDDPHHDLDDYTEIAGAPNVDADLSIALLHAPEPRVLAQFEADGYQLSLSGHTHGGQLEHHHHHH	not soluble
MGSDKIHHHHHHMIKNNRVYGIIGVGAYMANFNADLSGYPKTTTNNDIFGSDKALKYPMKRMWLIEGDKVFYIKSMTIAKSKKDKEMEILQPKDLIERYEDLFGKEWDANLTVKDVAKDLFSTVDIMNFGATFTGSESESKTAKKKIGHNISITGAVQINQGFNLYEKTNVLVQDILSPFRNPNDKSEDKTATSIGTKIVTDEAHYVYSFSVNPANYADYLGLIDGFEGYTTEAYEKFKRAARVATTAFNTNSKSGCENELALFIELKEDSKLFLANLDRYVEVRKKEKQTLYDLSKLAEIIAPQQEEIQSIELFHNPISVEVNYGSLPCTVNSIF	not soluble
VRGLLRVVGVRIEPGDHMLAIRDEIAGAIALGHSQGAVEKEDRDRLLGALDLSERTVEEIMRHRSQIEMIDADKPSAEVIAQVLASPHTRIPLYRGDHENILGIIHAKDLLREVSRLMRTGSTGALDELDILAVAMKPYFVPETTPLDEQMRQFLKRRTHFALVVDEYGALKGLITLEDIIEEIVGEINDEFDIAQEMTLKRADTGDYLVDGAMTI	not soluble
MSLQTLSIQHGTLVTMDQYRRVLGDSWVHVQDGRIVALGVHAESVPPPADRVIDARGKVVLPGFINAHTHVNQILLRGGPSHGRQLYDWLFNVLYPGQKAMRPEDVAVAVRLYCAEAVRSGITTINDNADSAIYPGNIEAAMAVYGEVGVRVVYARMFFDRMDGRIQGYVDALKARSPQVELCSIMEETAVAKDRITALSDQYHGTAGGRISVWPAPAITPAVTVEGMRWAQAFARDRAVMWTLHMAESDHDERLHWMSPAEYMECYGLLDERLQVAHCVYFDRKDVRLLHRHNVKVASQVVSNAYLGSGVAPVPEMVERGMAVGIGTDDGNCNDSVNMIGDMKFMAHIHRAVHRDADVLTPEKILEMATIDGARSLGMDHEIGSIETGKRADLILLDLRHPQTTPHHHLAATIVFQAYGNEVDTVLIDGNVVMENRRLSFLPPERELAFLEEAQSRATAILQRANMVANPAWRSLEGHHHHHH	soluble
MGSDKIHHHHHHMATEAQVLEALQATMSAAYTRGLSAAKPQWNMIATEVPSAGAANFYGWLKDLPGIVEWTGARQLANLGKHGYSIENKTFESSISISRDNVDDDQIGQYSVIAQNYGDQVAYFPDTLAYPLLKAGFTTLCYDGQNFFDTDHPLATTPATTFSNVIGDPATDTGEPWFLIDDTKVLKPIVFQNRRPFVFKNMNPNEEYTWFNNKYAAGVDGRCNVGFSFPQLAIGSKAALTEANYAAAKKLLLKMKKVDGTPIGTRATKLVVGPDNEAAAKKLISRMLIEGGDTNIYYNDVEIVVSPLVTA	not soluble
MPAPLTFARLTQVDPNLITAHMRDPRLAIHMPLMPDSWSDAQTVSFVQSKEACWDRDGLGHWAFLHQDRYVGWGGFQREGEEWDFGLVLCPAHFGLGLPIARKALDFAHADPRIPFVTFLLPPSRQHLGALRRLGAQPLGETDHAGHRFLKFRLDTA	not soluble
MAIIPKNYARLESGYREKALKIYPWVCGRCSREFVYSNLRELTVHHIDHDHTNNPEDGSNWELLCLYCHDHEHSKYTEADQYGTTVIAGEDAQKDVGEAKYNPFADLKAMMNKKK	not soluble
YLSDVISSPQFEQAKSPTTVVLGQDIAGEAVIADIAKMPHVLVAGTTGSGKSVGVNVMILSMLYKASPEDLRFIMIDPKMLELSIYEGIPHLLAEVVTDMKDASNALRWCVGEMERRYKLMSALGVRNVKGFNEKLKMAAEAGHPIHDPFWQEGDSMDTEPPLLEKLPYIVVVVDEFADLMMVVGKKVEELIARLAQKARAAGIHLILATQRPSV	not soluble
MGSVRKASAWLGLVDDNNDDERYYDDDYSEGPESGDAWVTDPRVKVASDVAEEKGRRIATVTPDSFRDARAIGELFRDGVPVIVNLTAMEGTDAKRVVDFAAGLIFGLRGSIERVSTRVFLLSPADTQVISGESAAHRSDGFFNQSLEHHHHHH	not soluble
MPNLPALPDMGLPVVTSDLTATLLPGVASPIVPGQPIEQAFSSILISMMKSDQAIEDDTENPAPVSIDALIAGMIAAPANPPQLVPSQPAPDALDTPNAPDAPAEELLSMLATSMMPNTGQPVTDEPVTFPAGGLASATPPNLPSDSGRHAADPLQTTSQAHAAPLPAELPAGNISTSTPFPAPVNSFNQAIDAANFADSGKSLPPSMTSVPVTPVAAHTSSTPLTDIAADTTANDAPAIAAEFGQPDWPEEFGRKITWLATQRMQAAELKLHPAHLGPIEISLQLSDDQRLTAQFISHHPAVREAIEANLPRLREIMAENGITLADTSVSADTPGQQAENRQGSPFRRPAAGDHSTYDSTSPQTPALQATRRSSLIDTFA	not soluble
